The target in this assay is R0RBR parkin (residues 141–465, lacking Ubl domain and linker) (human) (UniProt O60260). As to the kind of experiment: ITC; 50 μM R0RBR, full-length parkin or phosphoparkin titrated with Ub, Ubl or their variants; 25°C; 50 mM HEPES, 50 mM NaCl, 250 μM TCEP pH 7.5 or 50 mM HEPES, 150 mM NaCl, 0.5 mM TCEP pH 8.0; single-site model. On the technique in general: In ITC the heat of successive injections is recorded.
In general, Kd refers to the concentration at which binding is half-saturated. The low end stands for higher affinity, the high end for lower affinity. The term stoichiometry N denotes the number of molecules, sites or subunits per partner or assembly. In the case of “parkin Ubl domain S65D (from UniProt O60260 144-465) (domain or fragment)”, the Kd worked out at 5 µM, the dH is -38 kJ/mol and the stoichiometry N worked out at 1.03.
As to “parkin Ubl domain S65E (domain or fragment)”, the Kd is 5.3 µM, the dH is -46 kJ/mol and the stoichiometry N was 0.98.
Take “phosphorylated parkin Ubl domain (domain or fragment)”: the Kd stood at 26 µM, the dH is -16 kJ/mol and the stoichiometry N was found to be 1.04.

The record behind these values is paper PMC4609183.
